Source: the DeepSol protein solubility set

Assay: soluble on expression in E. coli; label from the status in PepcDB or PDB records

Row | Sequence | soluble on expression in E. coli
1 | MFEKVRKIIAEQLGIEEDEITMESSFIDDLGADSLDIVELIMALEEEFDLEIPDSEAEKITTVGDVVEYIKNNS | not soluble
2 | MSLIVLKFGGSSIKYDFEEATNLALSLFEDDAVIVVVSAIKGITDKLILYSQTLDKTIATKIASEYVSFAKSHGIDPVILKPYLDELFNLPDLPEEALRDYILSLGEVLSAVIFSASIGGKFVPSWDIFEAEGNFGNAFIDIKSSKKKFKRVFEVLEEGYIPVIPGFTAGKDGYILTLGRGGSDYSGVAAGVLGKAKLVAIMSDVEGIYTADPKLVPSARLIPYVSYDEIIISSKHGMRALQWKAAELAKEYKIPVLFGRTRNWRMGTLMSERSSGMPLMTYKDGLLLVNVTEEIKYPIIAEGPFWKLYKVSQEEGIHLMRELHTKLFQPSFIQYSVYKSSENGQKTQEFNEKISIEQGENRKIYYSEEEVNLPGEGHHHHHH | soluble
3 | MGSDKIHHHHHHMAKIKHGFSGQRLIVYPFYVIEQALNNPLVADLVVHSMGYFPKAESHYIDRASGCGEYLLIYCTKGEGWYVLDGKRYVVPENHFFILPAEKPHQYGSSEHDPWYIYWAHFKGKKAKYISDQLQGVIPIDMDDNSRIGDRIAFFDELLNVLESGTDEATVNYVNLSFNHLIASFLYVKTYREAKFSKSKAENTFFISLATHFMTENLENKLTLKELASHFGYSESYMYRLFFKETGYAPMNYFLHMKIDRACQLLLHTNMKINQVALKLGFDDPYYFSRIFKKIVGTSPKDYRHSLPK | not soluble
4 | MASQAASKAVTFAYNGTIASTLRKFAWSNLWGGREYGLQFHDTYFEPAPEVTEALRRLNLQEPHVFDQRKIRLSRAHTLALHGEKLPKAEWTQWDQESWYLKPYLDEIEAEKKARAETSGLIPPYQMKQH | not soluble
5 | ITERRQRQQRIEALHDTTRELMHVESREAAAELVVETARDLLGLPLSAVFLADESADALRPTAVTDQAQAIIDDHPTFSEGDSLVWEVFDSGEQRVFNDVSTHPNRYNPDTDVCSELLIPLGDHGVLIAASTDAAAFEDASVSLMRTLAANTEEALSRLDRQQELRTLTER | not soluble
6 | MAHHHHHHMKEHSHIIGLGDFFADAKKCWVLLASKSPRRIELMKLMGVSNLYICESGFEENLDKKQFASAEHYVKENALQKGLNVASHVWFGDQANTHSEGNVKEEETKKSTQQGSDSGHLSIGQPENEQHCTDATKKHQVKSLHSTYDPIPKVIISCDTIVTLKDEIIEKPLNKEHAREILKKLSSNIHCVYTAVCIFLHKTKVPITFIEKTDVHFDDLLEQDILEYLNSSEPYDKAGAYSIQGVGCQFIKKINGCYYNVMGLPINKLSKTLTQLCVEGKISA | soluble
7 | MSLNILIIGPSWVGDMMMSHSLYQQLKIQYPNCNIDVMAPNWCKPLLARMPEVRKAIEMPLGHGAFELGTRYRLGKSLREQYDMAIVLPNSLKSAFIPFFAKIVHRRGWKGESRYILLNDLRANKKDYPMMVQRYVALAFEKDVIPKADDIPVLKPYLTVEPAQQAETLKKFEKQTALLGERPIIGFCPGAEFGPAKRWPHYHYAKLAEMLITQGYAVALFGSAKDEPVGEEIRQALPEELREFCVNLAGKTNLNEAVDLIANCTAVVTNDSGLMHIAAAVNRPLIALYGPTSPQYTPPLSDKATIIRLIEGELIKVRKGDKEGGYHQSLIDITPEMALEKLNELLAKEGGSHHHHHH | soluble
8 | MSLRVTLTDVARAAGVSKSTVSLVLNDSSLIKKETQQKVQQAIEQLGYVYNRFAANLRSQKSLTIGVVIDDLINPFFAEFTMGLEMTLAEHGFITVMSNTSQRSDRQKQVLDTLLEHHVAGIVLCPVNSTSEADLQRYANSSTPLLITMRPLDWQQLPVDYVGVDSHAGVREATEYLIQQGHRDIVFIGGLTHHMRYQGYLEAMNHHGLQPWSTDAFSLRAEPTQANGYQLMQQLLDMPSPPTAVICYNDLMAFGAESALGERGLFAGEDISLIGNDGVAACAYSNPPLTTIAVEPLALGKQAAQQILRRIAQPDAPLSHYIYRPTLQIRASTGKEGHHHHHH | soluble
9 | NTTHAYVHASPPHSVPIAGASTAAVTHQQATQLKGTDELYGLGNLPSSGPGRWEYLANPENWHPERRKLHEKLLDEARSSALTLAESLERDGCQPTLFALRGNTATGKTRIATKKIPALAAALEKTGGKGCINPDVFKSSLAKSEAGAKIFSSAQVHNESCFLADHFEDGLRSQRTGSGAIASIVVDKRLARAYEIDSYIELAKETGRKVELCDIDAPLENSLTGVLQRKPEGEDPRPPYPVVSSGFVAVRSNRMSVIDRFIADPSLGNYRLFGTAEDGKKVMVASVMGGELSVEDADLYEKITSPQSSVTGDLADKIIDNELIDRLTNNIDDPERAANTRAALEKYNGKSWSAALAAHSELI | not soluble
10 | MSEYRVNHEPVFMLASSPWRESSLWVEAFSRRYGRVALLARSARKRQSELRGVLVPFVPVSVSWYGSQELKTLHRAEWVGGWRQPQGRALFGGLYVNELVLKLTAREDPVPELYDALAEVMEAVCCKAAYIDDLRRFEWRLLNLLGVAPDLNRDGDGGTIAAGGTYLVRPETAVFPVGKGFAVPPHAAGVVAPGQSLIDLREGSFRTAESLQQALKITRLFIRHLLPEGLKSRQVLEQIRQFDRKETARETVPTSDGTASNAV | not soluble
11 | MHTIPITTDSAASWDWPLQHNDGVVKVTNTSEKFEVGLDAGFFGPNDIDVKVNGIEIIIHLRHDNRPTEYGIVNREVHRTYKLPEDVDPSTVRSHLNSSGVLTITANKL | not soluble
12 | GPGSMEQGAFNDVAKKALEFRNRYYKMLDDPQDRLNVAGLYAPDVPMVCEWNGHPLSTVDDVRNYISALPKTSHQVDMVDAQPLPDNQDGDSFLLTVHGIVTYNDEHRREFYQRMVIRRFEQRYYILNDYYRWLSERSQ | soluble
13 | MIITIPIKNQKDIGTPSDSVVVLGYFDGIHKGHQELFRVANKAARKDLLPIVVMTFNESPKIALEPYHPDLFLHILNPAERERKLKREGVEELYLLDFSSQFASLTAQEFFATYIKAMNAKIIVAGFDYTFGSDKKTAEDLKNYFDGEVIIVPPVEDEKGKISSTRIRQAILDGNVKEAGKLLGAP | not soluble
14 | PAKRAFSNADQFVETMLPLAKEAAARIGVDPVMLVAQAALETGWGKSIMRQQDGSSSHNLFGIKAAGSWKGAEARAITSEFRDGKMVKETADFRSYDSYADSFHDLVSLLQNNNRYKDVVNSADKPEQFVKELQKAGYATDPAYASKISQIAKQMKS | not soluble
15 | MDEGMQIVGAVSGLSTPFNQNVSLECYNGILSMLLNGAPLADILHALVLKIEDQRLGTHASVLLLSEDGKRVLTGAAPHLPDSYNQVIHGVEIGPEVGSCGTAAYTGQRVIVEDIEHHPYWALYKSFALVHGLRACWSEPIKDTQGKVLGTFAMYYKEIKSPTVADLTLIAEAARLASLAIERSRSLEFQRLAVKIFDRLPLALVITNASHSVLYANDAFKLMVCLQPDDILAFNPEQFFSPSEPHEIASLFNHLSEGKMWQGELVGLRNNGETFYLDLTVTVFRESHSADLGFAWLFSDVSERKKAAQLIKYQANNDSLTGLANRNALFRQIQELINADSLTPGFSFMLMDLDNFKQVNDTYGHDKGDVLLVQMVEQVKICLDPQAVFARLGGDEFAILLPGVVTQRELSQLADKINKQVYRRYELSHDKGVYSSVSIGIARFPEDALDLEQLLNCADQAMYISKANGRNRYHFFTEQMQQNAERIANLHTLLKQALEQNAFELYFQPIVDATTGLIVRAEVLLRWQHEGQFISPDEFIPIAENSGLIVSIGRCVRQAVMQTIVEMQALGWPMSLAINVSTFEFWSHELQDEFCDSFTDIIEGLGVEDFPYELITLEITESLLMKKHAHLIQVLNELRARGIKISLDDFGTGYSSLSYLANFPIDQIKIDKSFIDRLAEGERHLALIEAIVRLSHALNLRVTAEGVETQEQLQVMMDNHIQEIQGYLFYKPIPKAVFFELLAKQAVISPHSLEHHHHHH | not soluble
16 | GKPDGKIDYADAVFKGCSDPGYLLGLNNTFRYKNFDLNVYFYGQLDLLKSGSYKDYWIVGSGTMTGVNNLYRGYNMPTSAKEVWSHDNTSGKMPGYFQYMSNYGYGDYFLEKSWFIRCRNITLGYTLPVKSAKKLVSNVRIYADVNNLFTITPYDGLDVETDDSYWAYPNVRSFSIGLDITF | not soluble
